Reference: the supplement of paper PMC9112550, “Optimization of the antimicrobial peptide Bac7 by deep mutational scanning” (BMC Biology, 2022)

Test system: Escherichia coli TOP10
Assay: shrunken log2 fold change of peptide-encoding DNA abundance (4.5 h post-induction vs induction); higher = less antimicrobial activity (less host growth inhibition)
Conditions: time post-induction: 4.5 h; library: site-saturation at positions 5, 18, 19, 20
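Further: peptides expressed intracellularly from a pBAD plasmid library in pooled LB shake-flask culture, induced with 0.3% L-arabinose, DNA abundance read by NGS, three biological replicates, DESeq2 with apeglm shrinkage.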

| Sequence | shrunken log2 fold change |
| --- | --- |
| RRIRCRPPRLPRPRPRPRMTPRP | 0.296 |
| RRIRHRPPRLPRPRPRPNTTPRP | -0.019 |
| RRIRIRPPRLPRPRPRPRDCPRP | -0.296 |
| RRIRPRPPRLPRPRPRPTIAPRP | -0.0457 |
| RRIRNRPPRLPRPRPRPCGFPRP | -0.0155 |
| RRIRFRPPRLPRPRPRPALEPRP | 0.0373 |
| RRIRIRPPRLPRPRPRPKRIPRP | 0.0468 |
| RRIRTRPPRLPRPRPRPLEFPRP | -0.0903 |
| RRIRCRPPRLPRPRPRPMNNPRP | -0.537 |
| RRIRKRPPRLPRPRPRPNTGPRP | 0.382 |
| RRIRIRPPRLPRPRPRPYVAPRP | -0.674 |
| RRIRRRPPRLPRPRPRPMSQPRP | 0.247 |
| RRIRSRPPRLPRPRPRPCFGPRP | -0.217 |
| RRIRPRPPRLPRPRPRPKAWPRP | -0.0274 |
| RRIRFRPPRLPRPRPRPVNTPRP | -0.377 |
| RRIRHRPPRLPRPRPRPEPTPRP | 0.179 |
| RRIRSRPPRLPRPRPRPMCMPRP | -0.000628 |
| RRIRTRPPRLPRPRPRPGWFPRP | 0.461 |
| RRIRIRPPRLPRPRPRPSGRPRP | -0.427 |
| RRIRCRPPRLPRPRPRPCMEPRP | -0.681 |
| RRIRDRPPRLPRPRPRPRIVPRP | -0.385 |
| RRIRKRPPRLPRPRPRPNHCPRP | 0.0144 |
| RRIRTRPPRLPRPRPRPIHDPRP | -0.0511 |
| RRIRQRPPRLPRPRPRPFSRPRP | 0.00616 |
| RRIRHRPPRLPRPRPRPDREPRP | 0.0062 |

| Sequence | shrunken log2 fold change |
| --- | --- |
| RRIRERPPRLPRPRPRPFHSPRP | -0.256 |
| RRIRWRPPRLPRPRPRPHSGPRP | 0.00842 |
| RRIRFRPPRLPRPRPRPLLCPRP | -0.105 |
| RRIRCRPPRLPRPRPRPAIDPRP | -0.0121 |
| RRIRGRPPRLPRPRPRPIKFPRP | 0.211 |
| RRIRGRPPRLPRPRPRPTCLPRP | 0.576 |
| RRIRARPPRLPRPRPRPHLMPRP | 0.0747 |
| RRIRTRPPRLPRPRPRPPPHPRP | 0.907 |
| RRIRARPPRLPRPRPRPLEVPRP | 0.676 |
| RRIRKRPPRLPRPRPRPWYTPRP | -0.177 |
| RRIRIRPPRLPRPRPRPLACPRP | -0.398 |
| RRIRMRPPRLPRPRPRPARQPRP | 0.825 |
| RRIRFRPPRLPRPRPRPFKGPRP | -0.23 |
| RRIRLRPPRLPRPRPRPFELPRP | -0.519 |
| RRIRNRPPRLPRPRPRPMSNPRP | 0.0527 |
| RRIRQRPPRLPRPRPRPICRPRP | 0.0232 |
| RRIRTRPPRLPRPRPRPHIWPRP | -0.103 |
| RRIRKRPPRLPRPRPRPCIAPRP | -0.0581 |
| RRIRERPPRLPRPRPRPSRFPRP | 0.17 |
| RRIRDRPPRLPRPRPRPRTAPRP | 0.445 |
| RRIRQRPPRLPRPRPRPCSTPRP | 0.0062 |
| RRIRRRPPRLPRPRPRPSYVPRP | -0.0434 |
| RRIRDRPPRLPRPRPRPMYIPRP | -0.148 |
| RRIRVRPPRLPRPRPRPDVKPRP | -0.0375 |
| RRIRKRPPRLPRPRPRPEMVPRP | 0.422 |
